The text below walks through data of PMC10911789.

The target in the test is recombinant spike glycoprotein RBD from SARS-CoV-2 (BEI Resources NR-52366) (SARS-CoV-2) (UniProt P0DTC2). Nature of the test: BLI. In general terms: Biolayer interferometry detects binding as a change in optical thickness at a sensor tip.

Sequence of recombinant human GAPDH (glyceraldehyde-3-phosphate dehydrogenase), P04406 1-335 (enzyme; other documents disagree on this pair) (P04406 whole entry): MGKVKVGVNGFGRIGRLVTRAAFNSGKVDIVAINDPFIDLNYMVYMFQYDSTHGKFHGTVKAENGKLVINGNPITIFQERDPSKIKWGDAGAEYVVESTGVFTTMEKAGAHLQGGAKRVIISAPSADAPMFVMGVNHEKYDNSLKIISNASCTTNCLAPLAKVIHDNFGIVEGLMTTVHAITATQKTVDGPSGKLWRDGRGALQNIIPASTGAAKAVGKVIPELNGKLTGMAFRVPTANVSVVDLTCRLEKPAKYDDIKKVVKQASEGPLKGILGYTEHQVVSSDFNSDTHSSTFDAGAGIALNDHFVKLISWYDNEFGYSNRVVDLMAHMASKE

Regarding “recombinant human GAPDH (glyceraldehyde-3-phosphate dehydrogenase), P04406 1-335 (enzyme; other documents disagree on this pair)”, the Kd (in general, the free concentration of one partner at which half of the binding sites on the other are occupied at equilibrium, for simple one-to-one binding) was determined as 11.8 nM.
